Each block holds one molecule with its values, some of them ahead of it.
Tests used:
RenCa kidney cancer = RenCa kidney cancer tumor, intra-tumoral glycan injection; format: in vivo, BALB/c mice
Procedure: (§1) B16 melanoma cells (5×10^5 cells/mouse) were implanted s.c. into B6 mice (n=4); on day 6, 1 mg of Glycan #3 (G3) or Glycan #12 (G12, see FIG. 1A) was injected intra-tumorally 5 times every 2 days. Tumor volume was measured (FIG. 10A). On day 17, tumors (photos of 2 representatives) were excised. […] Similar experiments were performed with RenCa kidney cancer in BALB/c mice and data are shown in FIG. 10C (tumor volume) and 10D (expression of angiogenic factors). Data shown is representative of 2 experiments. *p<0.0001.

DC-HIL-Fc = DC-HIL-Fc binding to HS oligosaccharide microarray; conditions: DC-HIL-Fc 10 mg/ml, visualized by Cy-3, FIG. 1B
Procedure: Various HS oligosaccharides (4-8-mers of HS disaccharide) were imprinted on microarray (Gycan Therapeutics Inc). These glycans were chosen based on sulfation patterns in mammalian cells (FIG. 1A). DC-HIL-Fc (10 mg/ml) was applied and then hybridized to the microaway and visualized by Cy-3 (mean±SD, n=6). […] SVEC mouse endothelial cells or activated T-cells were then incubated with DC-HIL-Fc (10 mg/ml) plus indicated oligoglycans, and DC-HIL binding was fluorescently stained with anti-Fc Ab and FACS analysis. FIG. 1C provides histograms showing binding of Fc control (blue) or DC-HIL-Fc (red), respectively.

B16 melanoma cells [1] = assay: B16 melanoma s.c. tumor, intra-tumoral glycan injection; format: in vivo, B6 mice
Procedure: as §1

[2] = tested on: DC-HIL-induced angiogenesis; assay: Matrigel plug assay of DC-HIL-induced angiogenesis; format: in vivo, mice; conditions: DC-HIL-Fc 200 nM with 10× molecular excess of glycan in matrigel, s.c., 2 weeks
Procedure: In order to test the role rHS (Glycan #12) plays in controlling angiogenesis, DC-HIL-Fc (DCH) or Fc (200 nM) was mixed with 10× molecular excess of Glycan #3 or Glycan #12 (See FIG. 1A) and added to matrigel, and implanted s.c. into mice; 2 weeks later, plugs were excised and observed for blood vessels under microscope. Representative photos are shown (FIG. 9A). Plugs were quantified for Hb content (FIG. 9B). Red-dashed line indicates Hb level in Fc-control plug. Data are shown average±SD, n=4.

LacZ-LL2 cells = assay: Spontaneous lung metastasis from resected s.c. LacZ-LL2 primary tumor; format: in vivo, mice; conditions: Ab injection every 3 days after tumor resection, lungs 2 weeks later
Procedure: Briefly, mice were implanted s.c. with LacZ-LL2 cells, 2 weeks later, tumor was resected surgically. Mice were then treated with Ab injection every 3 days. 2 weeks later, lungs were excised and stained with X-gal (labeled LacZ-LL2 cells in blue) and blue stains were counted. FIG. 17B provides representative images of lung sections stained with X-gal, showing by green or red arrows. The number of tumor cells per field of view (FOV) were counted and plotted in FIG. 17C alongside and average of 5 FOVs. Each dot represents an individual mouse.

B16F10 melanoma cells = assay: B16F10 melanoma s.c. tumor growth and tumor IHC, rHS Ab vs PD1 Ab; format: in vivo, B57BL/6 mice
Procedure: Antitumor activity of rHS Ab to B16 melanoma was examined. Briefly, B16F10 melanoma cells (5×10^5 cells/mouse) were implanted s.c. into B57BL/6 mice (n=5). Six days later, mice were treated with i.p. injection of Ab every 2 days; 1A7 rHS Ab (20 mg/mouse), PD1 ([…]), rHS/PD1 (20 mg and 200 mg, respectively) or control (Ctrl) Ab ([…]). Tumor volume was measured every 2 days (FIG. 20A). On day 15, all mice were euthanized, tumors were excised and IHC-stained with marker Ab (CD4, CD8, CD11b, and CD31) (FIG. 20B). Positive staining is assayed by % positively stained areas in 4.5 mm2 view (mean±sd, n=5). […] Thus, rHS Ab inhibited melanoma growth, reversing immune suppression and tumor angiogenesis.

LL2 cells = assay: Experimental lung metastasis after i.v. injection of LL2 cells; format: in vivo, mice; conditions: day 18, vs KLH
Procedure: (§2) On day 6 after implantation s.c. of B16 melanoma cells (2×10^5 cells/mouse), mice were treated i.p. with 1A7 or KLH Ab (10 mg/mouse, every 2 days, 5×, shown by reverse arrows). In separate experiments, tumor free mice were injected intravenously (i.v) with 1A7 or KLH (10 mg/mouse) either one day before (d-1) or one day after (d1) intravenous (i.v) injection with B16 or LL2 cells (2×10^5 cells/mouse, n=5). On day 12 (for mice injected with B16 cells) or day 18 (for mice injected with LL2 cells), the number of GFP+ cells in 5×10^5 lung cells was determined via FACS. FIG. 11C-11E summarize numbers of positive cells in each condition.

[3] = ELISA: DC-HIL-Fc binding to Glycan #12-coated wells with increasing dose of 1A7 SdAb; conditions: DC-HIL-Fc 1 mg/ml, increasing dose of 1A7 SdAb, FIG. 3D
Procedure: SdAbs were obtained as described in Example 2. All SdAb clones were purified from DNA-transfected CHO cells. […] Biotinylated Glycan #12 (0.5 mg/ml) was immobilized to ELISA wells precoated with streptavidin (1 mg/ml) and incubated with increasing doses of 1A7 SdAb (FIG. 3A), FGF2 (negative control, FIG. 3B) and VEGF (positive control, FIG. 3C). After incubating for 1 h, wells were washed and binding measured by anti-c-myc Ab (OD450); SdAb has the C-terminal c-myc tag. In FIG. 3D, DC-HIL-Fc (1 mg/ml) was incubated with Glycan #12-coated wells, with increasing dose of 1A7 SdAb. % inhibition is shown. […] In FIG. 3E: FGF2 or VEGF (0.25 or 0.5 mg/ml) was added to Glycan #12-wells with 0.5 mg/ml of 1A7 or control SdAb (Ctrl), which is specific for KLH. % inhibition is shown. To examine the expression of the 1A7 epitope, immortalized murine […] cells (SVEC) were treated with 50 mM Sodium Cholate (red histogram) or untreated (Blue). Next day, cells were analyzed by FACS for expression of 1A7 epitope (FIG. 3F). […] FIG. 3H summarizes all data from experiments of binding/inhibition and expression analysis on different tumor lines. “Block DC-HIL (or VEGF or FGF2)” means blocking of binding to Glycan #12.

[4] = HS glycan microarray analysis of 1A7 SdAb (53 glycan compounds); format: binding; conditions: 1A7 SdAb 10 μg, anti-c-myc label, FIG. 4
Procedure: 1A7 SdAb (10 μg) was hybridized with HS glycan microarray consisting of 53 glycan compounds (Glycan Therapeutics Inc) and fluorescently labeled with anti-c-myc. Hybridized arrays were analyzed for fluorescence intensity (U); average±sd, n=100). SdAb has the C-terminal c-myc tag.

B16 cells = assay: Experimental lung metastasis after i.v. injection of B16 cells; format: in vivo, mice
Procedure: as §2
1A7 SdAb was compared to other standard treatments (e.g., anti-PDL1 antibody, anti-VEGFR2 antibodies) for its ability to inhibit metastasis using the B16 cell model. Mice (n=5) were injected i.v. with KLH, 1A7 SdAb (10 mg/mouse), anti-DC-HIL (DCH), anti-PDL1 (PL1), anti-VEGFR2 (VER) or combined PL1/VER (PL/VE) mAb ([…]). Next day, mice were given i.v. injection of 2×10^5 B16 cells/mouse. Note: Ab injection was a one-time treatment. On Day 14, lung was enumerated by FACS for GFP^+ cells (FIG. 12A) and the number in 5×10^5 lung cells (average±sd, n=5) are summarized (FIG. 12B). *p<0.0001; **p=0.007. Data are representative of 2 separate experiments. […]

B16 melanoma cells [5] = assay: B16 melanoma s.c. tumor growth, i.p. 1A7 or KLH Ab; format: in vivo, mice; conditions: 10 mg/mouse i.p. every 2 days 5× from day 6, vs KLH Ab
Procedure: as §2

Pan-T cells = assay: Anti-CD3-induced Pan-T cell proliferation (3H-thymidine) on wells coated with 1A7; format: cell-based, human; conditions: wells pre-coated with 4 mg/well Ab plus increasing doses of anti-CD3 Ab, 2 days, vs KLH control Ab
Procedure: The ability of 1A7 to affect induction of T-cell activation using anti-CD3 antibodies was tested. Pan-T cells isolated from blood sample of a healthy donor were incubated with wells (2×10^5 cells/well) pre-coated with 1A7 or KLH control Ab (4 mg/well) plus increasing doses of anti-CD3 Ab. After incubation for 2 days, ^3H-thymidine was pulsed for 16 h, harvested, and counted for cpm in cells. […] Data are shown average±SD, n=3

[6] = tested on: human SK-MEL-28 melanoma cell line; assay: Lung metastasis of human SK-MEL-28 melanoma cells in xenograft NSG mice; format: in vivo; conditions: single i.v. injection 10 mg/mouse one day before SK-MEL-28 i.v., Day 14, vs KLH
Procedure: A final experiment was performed to determine the effect of an anti-rHS antibody on human lung metastasis in a xenograft mouse model. Immuno-deficient NSG mice (n=5) were injected i.v. with KLH or 1A7 SdAb (10 mg/mouse). Next day, mice were given i.v. injection of 2×10^5 human SK-MEL-28 melanoma cell line. Note: Ab injection is just one time. On Day 14, lung was enumerated by FACS for GFP^+ cells (FIG. 16A) and the number in 5×10^5 lung cells (average±sd, n=5) are summarized (FIG. 16B). *p<0.0001. Data are representative of 2 separate experiments. 1A7 single injection decreased human melanoma in lung by 84% (FIGS. 16A and 16B).

- binding of DC-HIL-Fc to each glycan as average RFU (DC-HIL-Fc): strongest binding
Molecule: GlcNS6S-GlcA-GlcNS6S-IdoA2S-GlcNS6S-IdoA2S-GlcNS6S-GlcA [Glycan #12]
- Tumor volume (growth of kidney cancer) (RenCa kidney cancer; RenCa in BALB/c mice, intra-tumoral glycan): markedly attenuated growth
- tumor expression of angiogenic factors (qRT-PCR relative to GAPDH) (RenCa kidney cancer; RenCa tumors): inhibited tumor expression of angiogenic factors
- Tumor volume (growth of melanoma) (B16 melanoma cells [1]; B16 s.c. in B6 mice, 1 mg glycan intra-tumorally 5 times every 2 days from day 6): markedly attenuated growth
- tumor expression of angiogenic factors (qRT-PCR relative to GAPDH) (B16 melanoma cells [1]; B16 tumors excised on day 17): inhibited tumor expression of angiogenic factors
- DC-HIL-induced angiogenesis (blood vessels, Hb content of plugs) [2]: completely abrogated

- competition with DC-HIL-Fc for binding to Glycan #12 (% inhibition) [3]: compete for a similar binding site
B1: 1A7: single domain antibody clone, single variable heavy chain (VH), SEQ ID NO: 18, specific for rare heparan sulfate glycan (Glycan #12) (protein)
VHH: QVQLLESGGGLVQPGGSLRLSCAASGVKVSTKSMGWVRQAPGKGLEWVSTIARNDGSTYYADSVKGRFTISRDNSKNTLYLQMNSLRAEDTAVYYCARMKKNGGSKRQPHIRSWGQGTLVTVSS
modifications: Synthetic construct - Clone 1A7
- spontaneous lung metastasis (tumor cells per field of view, X-gal) (LacZ-LL2 cells): significantly reduced
- Tumor volume (melanoma growth) compared with PD1 Ab (B16F10 melanoma cells; 20 mg/mouse i.p. every 2 days from day 6, PD1 200 mg/mouse): better outcomes than PD1 Ab
- tumor density of CD4 T cells (% positively stained areas, IHC) (B16F10 melanoma cells; tumors excised day 15): increased tumor densities
- tumor density of CD8 T cells (% positively stained areas, IHC) (B16F10 melanoma cells; tumors excised day 15): increased tumor densities
- tumor density of CD11b (% positively stained areas, IHC) (B16F10 melanoma cells; tumors excised day 15): decreased densities
- tumor density of microvacuoles (CD31, % positively stained areas, IHC) (B16F10 melanoma cells; tumors excised day 15): decreased densities
- lung metastasis: number of GFP+ cells in 5×10^5 lung cells (LL2 cells; single 10 mg/mouse i.v. one day after (d1)): significantly reduced
- lung metastasis: number of GFP+ cells in 5×10^5 lung cells (LL2 cells; single 10 mg/mouse i.v. one day before (d-1)): significantly reduced
- affinity for Glycan #12 (fluorescence intensity on HS glycan microarray) [4]: robust affinity
- lung metastasis: number of GFP+ cells in 5×10^5 lung cells (B16 cells; B16 i.v., single 10 mg/mouse i.v. one day before (d-1), day 12, vs KLH): significantly reduced
- growth of B16 metastasis (GFP+ cells in 5×10^5 lung cells) compared to other treatments (B16 cells; single i.v. 10 mg/mouse one day before B16 i.v., Day 14, comparators anti-PDL1, anti-VEGFR2 200 mg/mouse): inhibited growth of B16 metastasis, more than currently FDA-approved drugs
- Tumor volume (tumor growth) (B16 melanoma cells [5]): significantly reduced
- T cell replication (activation), 3H-thymidine cpm (Pan-T cells): significantly less replication
- decrease of human melanoma in lung (GFP+ cells in 5×10^5 lung cells) [6]: 84%
